According to publication doi:10.1101/2025.03.30.646023 (bioRxiv, 2025):
Numbering of substitutions follows the chain as printed.

T1: SARS-CoV-2 spike S2 stem helix peptide (amino acid 1143 - 1162) (SARS-CoV-2, UniProt P0DTC2, biotin, amino-terminus)
T1 chain: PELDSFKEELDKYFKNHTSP

T2: SARS-CoV-2 spike S2 [aa 1149-1167] peptide (SARS-CoV-2, UniProt P0DTC2)
T2 chain: KEELDKYFKNHTSPDVDLG

B1: GB-0669 Fab (Fab, V domains shown)
VH: EVQLVESGAEVKKPGESLKISCKGSGYTFTRYWIGWVRQMPGKGLEWMGIIYPGDSDVRYSPSFQGHVTISADKSISTAYLQWNSLKASDTAMYYCARLPQYCSKGVCYRWFDPWGQGTLVTVSS
VL: EIVLTQSPSSVSASVGDRVTITCRASQGISSWLAWYQQKPGKAPKLLIYAASSLQSGVPSRFSGSGSGTDFTLTISSLQPEDFATYYCQQGHSFPYTFGQGTNLEIK
B2: CV3-25 Fab (Fab, V domains shown)
VH: B1 VH with V58T, K105N, Y109Q
VL: B1 VL with H92N
B3: PRO-37587 (antibody, V domains shown)
VH: QVQLVQSGAEVKKPGSSVKVSCKASGDTSDTYTISWVRQAPGQGLEWMGRIILLSGYANYAQKIQGRVTITADKSTSTAYMELTSLRSDDTAVYYCARGFNGDYYGWGDDDAFDFWGQGTLVTVYS
VL: QTVLTQPPSVSGAPGQRVTISCTGSSSNIGAGYRVHWYQQLPGTAPKLLIAGRSNRPSGVPDRFSGSKSGTSASLAITGLQAEDEADYYCQSYDSSLFDPHWVFGGGTKLTVL

Experiments:
[1] = target: T1, SARS-CoV-2 spike S2 stem helix peptide …; test: SPR
[2] = target: T2, SARS-CoV-2 spike S2 [aa 1149-1167] …; test: crystal structure
LC556375.1 RBD = LC556375.1 RBD (Sarbecovirus Rc-o319 (Rhinolophus …, strain)); test: flow cytometry on cells

| Binder | binding result [1] | binding result [2] | binding result (LC556375.1 RBD) |
| --- | --- | --- | --- |
| B1 | binds | binds |  |
| B2 | binds |  |  |
| B3 |  |  | no binding (tested: 1 nM) |
